Measured values reported in paper PMC9096947.
“And” between values parts separate entries of the source, which are not always exact repeats. Equal entries are not always repeated.

Tested on: CodY (Streptococcus agalactiae (Group B Streptococcus) BM110)
Experiment: EMSA
Details: EMSA as in Barbieri et al. 2015 (buffer, salt, pH, temperature not given); 50 nM FAM probe; 5% non-denaturing Tris-glycine polyacrylamide gel; 10 mM each ILV …

livKp220 (livK regulatory region, WT)
Kd: 50 nM and 150 nM
